From the supplement of paper PMC10567573

B1: CSNK1G1 (parent)
chain: GSLPWQGLKADTLKERYQKIGDTK
B2: SCNN1D (parent)
chain: IRVMVHGRNHTPFLGHHSFSVRPG

Variants of: B1
Assay: protein stability index of a GFP-peptide fusion (GPS, HEK-293T) (PSI 1-6); higher = more stable
Settings: c terminus: a fixed tail appended
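Also: lentivirally expressed fusions sorted by FACS into six bins by GFP to DsRed ratio, PSI derived from sequencing read proportions per bin multiplied by bin number.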

Protein stability index: each site, then its substitutions
G1: T 4.04 | I 3.52 | L 3.89 | E 4.44 | C 3.34 | H 4 | F 2.73 | R 4.16 | M 4.35 | D 4.35 | A 4.05 | Q 4.03 | Y 2.08 | N 4.13 | V 3.79 | P 4.15 | K 4.17 | S 3.97 | W 3.6
K14: L 3.1 | I 3.75 | M 3.36 | W 2.74 | E 4.23 | N 4.58 | Q 3.52 | P 4.41 | C 3.81 | F 3.13 | H 4.37 | T 4.09 | R 3.8 | D 4.02 | S 3.88 | Y 3.37 | A 4.55 | V 4.14 | G 3.08
L13: I 4.48 | T 4.65 | K 4.15 | W 3.05 | E 4.66 | D 4.49 | N 4.81 | A 3.96 | R 4.27 | M 3.46 | V 3.7 | G 4.12 | Q 4.47 | F 4.2 | S 4.62 | H 4.64 | P 4.06 | C 3.71 | Y 3.72
A10: T 4.48 | L 3.32 | F 3.5 | S 4.2 | Y 3.63 | G 4.46 | N 4.62 | H 4.11 | E 4.06 | P 4.39 | C 3.48 | M 3.7 | W 3.56 | K 4.28 | V 4.19 | R 4.06 | D 5.01 | I 3.6 | Q 4
T12: D 4.68 | C 4.06 | E 4.85 | K 4.28 | I 3.42 | F 2.86 | M 3.94 | S 4.58 | H 3.71 | N 4.07 | G 3.83 | V 4.2 | Q 4.19 | L 3.37 | P 4.86 | R 4.33 | W 3.27 | Y 3.51 | A 3.99
L3: I 4.55 | A 4.38 | C 4.31 | R 3.81 | W 3.41 | V 4.37 | K 4.12 | E 4.18 | P 3.88 | N 4.09 | S 4.2 | Y 4.09 | H 4.58 | T 4.09 | D 4.2 | Q 4.63 | M 4.54 | G 4.42 | F 3.71
Q6: N 3.92 | V 4.33 | H 4.62 | Y 2.89 | T 4.24 | F 3.25 | P 4.57 | A 3.7 | W 2.74 | G 4.13 | S 3.98 | M 4.07 | K 4.13 | C 3.4 | L 3.77 | D 4.48 | R 3.96 | E 4.32 | I 3.94
S2: K 4.37 | P 3.95 | Q 4.57 | L 4.17 | M 4.07 | Y 4.01 | R 3.83 | D 4.53 | A 4.14 | N 4.11 | H 3.16 | V 3.35 | I 3.47 | T 4.21 | C 3.22 | G 3.69 | W 3.04 | F 3.73 | E 4.6
P4: L 3.78 | E 4.46 | S 4.49 | K 4.28 | Q 4.3 | V 4.09 | R 4.37 | H 4.17 | N 3.95 | I 3.67 | T 4.08 | D 4.37 | M 4.55 | G 4.02 | C 3.42 | A 4.02 | W 3.09 | Y 3.73 | F 2.84
G7: Y 3.49 | M 3.85 | D 4.33 | P 4.38 | S 4.01 | W 3.52 | K 3.75 | I 3.52 | T 3.89 | E 4.31 | V 3.65 | N 4.64 | C 3.4 | R 3.56 | Q 3.9 | L 3.44 | A 4.39 | F 2.42 | H 3.72
D11: L 3.76 | S 4.11 | E 4.13 | M 3.32 | P 4.11 | G 3.8 | I 3.73 | Y 3.44 | H 3.69 | V 2.8 | T 3.61 | W 2.9 | K 3.93 | R 3.57 | C 3.63 | Q 3.56 | N 3.37 | F 2.89 | A 3.64
K9: S 4.2 | E 4.69 | G 3.9 | W 3.58 | C 3.93 | H 4.24 | I 3.79 | T 4.35 | R 4.09 | M 3.87 | D 4.25 | Q 3.89 | L 3.18 | V 3.77 | N 4.46 | Y 4.13 | P 5.08 | A 3.71 | F 3.66
L8: R 4.32 | I 4.13 | C 3.35 | D 4.75 | W 3.69 | E 4.44 | V 4.66 | H 4.36 | Q 4.24 | G 4.76 | M 4.35 | K 4.17 | N 4.58 | T 4.9 | P 4.43 | F 3.54 | Y 3.63 | S 4.64 | A 3.73
W5: D 5.18 | Y 4.43 | P 4.62 | H 4.53 | L 4.62 | I 3.99 | K 4.74 | N 4.97 | V 4.58 | G 4.53 | E 5.42 | T 5.09 | M 4.61 | R 4.29 | C 4.7 | S 4.99 | A 4.98 | Q 4.38 | F 4.75
E15: C 3.37 | F 3.56 | H 3.43 | G 4.07 | A 3.74 | D 4.25

Variants of: B2
Assay: as above
Settings: c terminus: a fixed tail appended

Protein stability index: each site, then its substitutions
G15: V 4.3
S18: D 2.01 | W 4.89 | R 4.09 | I 5.22 | P 2.79
G24: K 1.16 | R 1.19 | I 2.44 | H 1.84 | N 1.56 | D 2.04
F19: K 1.77 | H 1.91 | P 1.01 | N 1.09 | I 2.41 | M 1.87 | D 1.53 | G 1.52 | Q 1.77 | T 2.35 | R 1.09
V21: E 1.41 | R 2.78 | N 1.49 | S 1.87 | F 2.91 | H 3.02 | L 2.48 | A 1.8 | D 1.42
H17: P 2.38 | R 2.73 | G 3.13 | L 3.67 | Y 4.62 | K 2.99 | T 1.89 | E 1.51 | V 2.27
R22: D 2.85 | P 1.68 | M 3.3 | S 2.31 | W 3.39 | G 1.39 | F 2.77
H16: S 2.26 | Q 3.16 | L 3.83
S20: I 2.92 | K 2.98 | T 2.59 | N 1.84
P23: W 1.89 | A 1.32 | S 2.45 | K 1.44 | N 2.25 | Q 1.64 | T 1.8
